This is an account of results in PMC7808939.

Experiment [1] deals with Fbxl8 (UniProt Q8CIG9). Nature of the experiment: anti-HA co-IP, blot for cyclin D3. The note with it: reference: wild type Flag-cyclin D3; sites T283.
Experiment [2] addresses Fbxl8 (UniProt Q8CIG9). The experiment is described as follows: co-immunoprecipitation. The following applies: reference: wild type cyclin D3; sites T283.

“cyclin D3 (from UniProt P30282) Flag-cyclin D3 T283A”: the “binding against the reference” value in experiment [1] was “weaker”. With cyclin D3 (from UniProt P30282) T283A, in experiment [2], the “binding against the reference” value is on record as “lost”.
